# Numbering of substitutions follows the chain as printed. Names may count otherwise. “Also recorded” adds a separate entry of the source. No end group written: not given here. *: point of attachment. FITC = O=C1OC2(c3ccc(O)cc3Oc3cc(O)ccc32)c2ccc(NC(=S)*)cc21; fluorescein = fluorescein label on the N-terminus
# T1: non-farnesylated human PEX19 C-terminal domain (residues 161-299) (human, UniProt P40855 161-299)
# T1 construct: Peroxisomal biogenesis factor 19 (PEX19), human, C-terminal domain, residues 161-299 with the native C-terminus and CaaX box; 15N- (or 13C/2H-) labelled for NMR; Expressed from pETM11; also called PEX19 CTD; non-farnesylated PEX19 CTD; source: E. coli BL21 (DE3), purified (Ni-NTA, TEV cleavage, size-exclusion chromatography)
# T1 sequence (looked up): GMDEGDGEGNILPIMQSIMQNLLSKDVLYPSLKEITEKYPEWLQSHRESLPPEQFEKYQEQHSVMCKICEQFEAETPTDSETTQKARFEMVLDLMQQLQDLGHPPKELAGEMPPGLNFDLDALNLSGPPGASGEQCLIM
# T2: farnesylated human PEX19 C-terminal domain (residues 161-299) (human, UniProt P40855 161-299, farnesyl group on Cys296 (CaaX box))
# T2 construct: Peroxisomal biogenesis factor 19 (PEX19), human, C-terminal domain, residues 161-299, farnesylated at Cys296; Virtually complete farnesylation by SDS-PAGE and NMR; Isotope-labelled for NMR; also called farnesylated PEX19 CTD; source: E. coli BL21 (DE3), purified; farnesylated in vitro with S. cerevisiae farnesyl transferase, then Ni-NTA and Superdex 75
# T2 sequence (looked up): T1 sequence (looked up)
# T3: non-farnesylated human PEX19 C-terminal domain (residues 161-299) (human, UniProt P40855 161-299)
# T3 chain: T1 sequence (looked up)
# T4: farnesylated human PEX19 C-terminal domain (residues 161-299) (human, UniProt P40855 161-299, farnesyl group on Cys296 (CaaX box))
# T4 chain: T1 sequence (looked up)
# B1: PEX19 C296S: full-length PEX19 variant which lacks the farnesylation site (protein, UniProt P40855 1-299, looked up, variant C296S)
# chain: MAAAEEGCSVGAEADRELEELLESALDDFDKAKPSPAPPSTTTAPDASGPQKRSPGDTAKDALFASQEKFFQELFDSELASQATAEFEKAMKELAEEEPHLVEQFQKLSEAAGRVGSDMTSQQEFTSCLKETLSGLAKNATDLQNSSMSEEELTKAMEGLGMDEGDGEGNILPIMQSIMQNLLSKDVLYPSLKEITEKYPEWLQSHRESLPPEQFEKYQEQHSVMCKICEQFEAETPTDSETTQKARFEMVLDLMQQLQDLGHPPKELAGEMPPGLNFDLDALNLSGPPGASGEQSLIM
# modifications: full-length
# B2: wild type PEX19: full-length wild type human PEX19 expressed in fibroblasts (protein, UniProt P40855 1-299, looked up)
# chain: B1 chain with S296C
# modifications: full-length
# notes: full-length wild type human PEX19 expressed in fibroblasts
# B3: M255R: PEX19 CTD variant M255R (helix α4) (protein)
# chain: T1 sequence (looked up) with M95R
# modifications: left off: His6, end not stated, cleaved
# B4: N-terminally fluorescein-labelled PEX11B peptide (residues 186-200 of human PEX11B) (peptide)
# peptide: fluorescein-LALKLRLQVLLLARV
# notes: PEX11B, human, residues 186-200; also called PEX11-derived peptide; source: bought: Peptide Specialty Laboratories GmbH, Heidelberg
# Experiments:
# [1] = target: FITC-labelled ALDP peptide (62-…-76) (human); experiment: fluorescence polarisation; 20 nM FITC-ALDP peptide constant, 12-point titration of PEX19 CTD variants from 1 mM to 0.5 uM; 50 mM Tris pH 8.0, 50 mM NaCl; triplicates
# [2] = test system: PEX19-deficient human fibroblasts (ΔPEX19 T); experiment: Functional complementation of PEX19-deficient fibroblasts (peroxisomal protein import); type: cell-based; settings: full-length PEX19 variants, 72 h after transfection; for cells showing restored peroxisomal protein transport (functional complementation): at least 100 cells in three independent transfections, series of Fig. 3c
# Description: A bicistronic expression plasmid coding for eGFP-PTS1 and non-tagged PEX14 (pMF1220)[43] was kindly provided by Marc Fransen (Leuven, Belgium). pIRES2-HsPEX19-eGFP-PTS1 was constructed by replacing the open reading frame of PEX14 (BglII/SalI) with a DNA-cassette encoding the full-length open reading frame of human PEX19 as derived from BamHI/SalI digestion of pAH05 (ref. [44]). Single point mutations were introduced into the PEX19 sequence by Quickchange XL Site-directed Mutagenesis kit (Stratagene) using primer pairs (Supplementary Table 1). The bicistronic expression vectors coding for PEX19 variants and eGFP-PTS1 were transfected into the human cell-line ΔPEX19 T which was derived from PEX19-deficient Zellweger patient fibroblasts. ΔPEX19 T cells, characterized by a defect in peroxisome biogenesis were routinely authenticated by functional complementation assays as described below and checked for mycoplasma contamination using Venor GeM Advance Mycoplasm Detection Kit (Minerva Biolabs). The efficiency of transfection according to the Amaxa Cell Line Nucleofector Kit R protocol (Lonza Cologne AG) was always around 90%. After 72 h of transfection, cells were subjected to fluorescence and immunofluorescence microscopy using polyclonal antiserum against human PEX14 (ref. [45]) (1:400 diluted) or monoclonal antibodies against human PEX19 (BD Biosciences, MA5-17266 Thermo Scientific; 1:400 diluted). Statistical analysis was carried out from three independent transfections of each pIRES-PEX19-eGFP-PTS1 expression plasmid. Based on the appearance of eGFP-PTS1 fluorescence pattern, about 100 cells of each experiment were visually categorized into three classes, (i) full complementation of peroxisomal import as visualized by punctuate staining pattern, (ii) partial complementation as indicated by diffuse cytosolic staining with few dots, (iii) no complementation resulting in only cytosolic staining. All micrographs were recorded on a Zeiss Axioplan 2 microscope with a Zeiss Plan-Apochromat × 63/1.4 oil objective and an Axiocam MR digital camera, and were processed with AxioVision 4.6 software (Zeiss, Jena, Germany). The steady-state level of PEX19 expression was assessed by immunoblot analysis, using monoclonal mouse antibodies against HsPEX19 (BD Biosciences, MA5-17266; 1:1,000 diluted) (Supplementary Fig. 9).
# [3] = test system: PEX19-deficient human fibroblasts; experiment: Immunoblot analysis of PEX19 variants in transfected fibroblasts; type: cell-based
# Description: A bicistronic expression plasmid coding for eGFP-PTS1 and non-tagged PEX14 (pMF1220)[43] was kindly provided by Marc Fransen (Leuven, Belgium). pIRES2-HsPEX19-eGFP-PTS1 was constructed by replacing the open reading frame of PEX14 (BglII/SalI) with a DNA-cassette encoding the full-length open reading frame of human PEX19 as derived from BamHI/SalI digestion of pAH05 (ref. [44]). Single point mutations were introduced into the PEX19 sequence by Quickchange XL Site-directed Mutagenesis kit (Stratagene) using primer pairs (Supplementary Table 1). […] After 72 h of transfection, cells were subjected to fluorescence and immunofluorescence microscopy using polyclonal antiserum against human PEX14 (ref. [45]) (1:400 diluted) or monoclonal antibodies against human PEX19 (BD Biosciences, MA5-17266 Thermo Scientific; 1:400 diluted). […] Based on the appearance of eGFP-PTS1 fluorescence pattern, about 100 cells of each experiment were visually categorized into three classes, (i) full complementation of peroxisomal import as visualized by punctuate staining pattern, (ii) partial complementation as indicated by diffuse cytosolic staining with few dots, (iii) no complementation resulting in only cytosolic staining. […]
# [4] = test system: peroxisome biogenesis in cells; settings: ref Sacksteder et al, Gould J Cell Biol 2000; cited from earlier work
# Description: page 14: remnants (and this is also what can be seen in these figures). To improve clarity and avoid confusion, the authors should correct these mistakes. […] The sentence on page 9 now reads “Cells that are not complemented by functional PEX19 show a cytosolic mislocalization of the peroxisomal marker protein GFP-PTS1 and a diffuse background immunolabelling of the peroxisomal membrane protein PEX14 that is different from the peroxisomal pattern and known to be due to mislocalization to mitochondria (Fig. 5c, ΔPEX19).” Accordingly, the legend of Figure 5 ...
# [5] = Hydrophobic interaction chromatography; type: physicochemical
# Description: Purified PEX19 CTD and variants were adjusted to a buffer containing 650 mM (NH4)2SO4 and 500 μg protein was subjected to equilibrated Butyl Sepharose FF column (20 mM potassium phosphate, pH 6.5, 50 mM NaCl and 650 mM (NH4)2SO4). After washing, bound protein was eluted with linear decreasing (NH4)2SO4 concentrations (650–0 mM (NH4)2SO4, 20 ml). Eluted proteins were detected using 280 nm absorption. The binding strength is indicated by the elution volume and correlates with protein hydrophobicity.
# [6] = Stability of purified protein in solution; type: physicochemical
# [7] = target: T1, non-farnesylated human PEX19 C-terminal …; experiment: MST; fluorescein-PEX11B peptide (200 nM stock) constant, unlabelled PEX19 CTD serially diluted from 612 uM to 18 nM; 20 mM potassium phosphate pH 6.5, 50 mM NaCl, 20% methanol, 0.1% Tween; three measurements; settings: both partners purified
# [8] = target: T2, farnesylated human PEX19 C-terminal …; experiment: as above; settings: both partners purified
# [9] = target: T3, non-farnesylated human PEX19 C-terminal …; experiment: FP
# [10] = target: T4, farnesylated human PEX19 C-terminal …; experiment: FP; farnesylated PEX19
molecule,measurement,setting,value
farnesylated human PEX19 C-terminal domain (residues 161-299) (from UniProt P40855 161-299) (domain or fragment),fold increase in affinity over non-farnesylated PEX19 CTD,[1],7 fold
B1,functional complementation (in words),[2],cannot fully restore PEX19 function
same,cells showing restored peroxisomal protein transport (functional complementation),[2],46%
same,cells showing restored peroxisomal protein transport (functional complementation),[2]; listed as C296S,50%
same,expression and farnesylation in vivo,[3],lacks the farnesylation site
B2,cells showing restored peroxisomal protein transport (functional complementation),[2],60%
same,cells with rescue of peroxisome biogenesis,[4],~50%
B3,functional complementation (in words),[2],not capable of rescuing the ΔPEX19 phenotype; also recorded: completely abolishes PEX19 function
same,elution volume after start of the gradient,"[5]; Butyl Sepharose FF, linear decreasing (NH4)2SO4 650–0 mM, 20 ml, 20 mM potassium phosphate, pH 6.5, 50 mM NaCl, 280 nm, 500 μg protein",5.00 mL
same,"hydrophobic interaction chromatography, effect on hydrophobicity (in words)","[5]; farnesylated vs non-farnesylated, compared to wild type",most pronounced effects
same,stability in solution after purification,[6],not stable for long time in solution
B4,Kd,[7],29.8 ± 1.6 µM
same,Kd,[8],6.1 ± 0.4 µM
{FITC}-AAKAGMNRVFLQRLL [FITC-labelled ALDP peptide (62-AAKAGMNRVFLQRLL-76)],Kd,[9],262 µM
same,Kd,[10],36 µM

# From paper PMC5353646, “Allosteric modulation of peroxisomal membrane protein recognition by farnesylation of the peroxisomal import receptor PEX19” (Nature Communications, 2017)
